Laboratory results reported in PMC10397247.

Experiments:
Assay in all cases: two-hybrid library CCNG1;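 further: natural log of median RNA to DNA barcode read ratio; higher means stronger binding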
[1] = biological target: T1, 4H3855-bH
T1 chain: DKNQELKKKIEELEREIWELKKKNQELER

[2] = biological target: T2, 4H3185-bH
T2 chain: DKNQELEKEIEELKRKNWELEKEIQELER

[3] = biological target: T3, 4H568-bH
T3 chain: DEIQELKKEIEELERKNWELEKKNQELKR

[4] = biological target: T4, 4H908-bH
T4 chain: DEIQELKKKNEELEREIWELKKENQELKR

[5] = biological target: T5, 4H331-bH
T5 chain: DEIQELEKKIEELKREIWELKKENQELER

[6] = biological target: T6, 4H687-bH
T6 chain: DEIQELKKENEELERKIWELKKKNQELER

[7] = biological target: T7, 4H4001-bH
T7 chain: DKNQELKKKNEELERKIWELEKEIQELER

[8] = biological target: T8, 4H2618-bH
T8 chain: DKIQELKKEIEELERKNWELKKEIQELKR

[9] = biological target: T9, 4H1845-bH
T9 chain: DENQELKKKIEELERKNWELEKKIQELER

[10] = biological target: T10, 4H607-bH
T10 chain: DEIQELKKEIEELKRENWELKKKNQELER

[11] = biological target: T11, 4H1257-bH
T11 chain: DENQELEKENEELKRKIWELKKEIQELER

[12] = biological target: T12, 4H754-bH
T12 chain: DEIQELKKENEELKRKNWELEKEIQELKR

[13] = biological target: T13, 4H1828-bH
T13 chain: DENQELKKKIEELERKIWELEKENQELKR

[14] = biological target: T14, 4H72-bH
T14 chain: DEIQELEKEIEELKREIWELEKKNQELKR

[15] = biological target: T15, 4H3112-bH
T15 chain: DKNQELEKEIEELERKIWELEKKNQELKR

[16] = biological target: T16, 4H2729-bH
T16 chain: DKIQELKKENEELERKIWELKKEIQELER

[17] = biological target: T17, 4H3427-bH
T17 chain: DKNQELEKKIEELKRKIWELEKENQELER

[18] = biological target: T18, 4H797-bH
T18 chain: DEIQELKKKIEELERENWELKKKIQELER

[19] = biological target: T19, 4H454-bH
T19 chain: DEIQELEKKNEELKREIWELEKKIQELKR

[20] = biological target: T20, 4H918-bH
T20 chain: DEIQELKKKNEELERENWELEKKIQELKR

[21] = biological target: T21, 4H717-bH
T21 chain: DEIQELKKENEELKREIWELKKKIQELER

[22] = biological target: T22, 4H953-bH
T22 chain: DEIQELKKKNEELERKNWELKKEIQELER

[23] = biological target: T23, 4H2576-bH
T23 chain: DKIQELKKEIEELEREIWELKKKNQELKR

[24] = biological target: T24, 4H967-bH
T24 chain: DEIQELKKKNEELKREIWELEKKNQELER

[25] = biological target: T25, 4H1446-bH
T25 chain: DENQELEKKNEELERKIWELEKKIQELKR

[26] = biological target: T26, 4H883-bH
T26 chain: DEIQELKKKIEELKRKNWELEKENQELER

[27] = biological target: T27, 4H338-bH
T27 chain: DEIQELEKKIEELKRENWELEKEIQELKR

[28] = biological target: T28, 4H2667-bH
T28 chain: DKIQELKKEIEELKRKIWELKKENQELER

[29] = biological target: T29, 4H3782-bH
T29 chain: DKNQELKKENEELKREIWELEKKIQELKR

[30] = biological target: T30, 4H2442-bH
T30 chain: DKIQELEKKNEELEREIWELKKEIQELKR

[31] = biological target: T31, 4H3354-bH
T31 chain: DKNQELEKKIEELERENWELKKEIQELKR

[32] = biological target: T32, 4H3381-bN
T32 chain: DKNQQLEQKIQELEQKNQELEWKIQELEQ

DENQELEKENEELKRKIWELKKEIQELER [4H1257-bH]
interaction score [1]: -0.288 | interaction score [2]: -0.808 | interaction score [3]: -0.399 | interaction score [4]: -0.669 | interaction score [5]: -0.435 | interaction score [6]: 0.172 | interaction score [7]: -0.377 | interaction score [8]: 0.0958 | interaction score [9]: -1.83 | interaction score [10]: -0.218 | interaction score [11]: -1.44 | interaction score [12]: -0.282 | interaction score [13]: -0.108 | interaction score [14]: -2.61 | interaction score [15]: -0.383 | interaction score [16]: 0.0373 | interaction score [17]: 0.386 | interaction score [18]: -0.73 | interaction score [19]: 1.26 | interaction score [20]: 0.00985 | interaction score [21]: -0.541 | interaction score [22]: -0.825 | interaction score [23]: 0.394 | interaction score [24]: -1.63 | interaction score [25]: -0.833 | interaction score [26]: 0.223 | interaction score [27]: -0.528 | interaction score [28]: -0.837 | interaction score [29]: 0.911 | interaction score [30]: -0.172 | interaction score [31]: -0.79 | interaction score [32]: -0.693
